Test results as given in PMC7954794, “Protein context shapes the specificity of SH3 domain-mediated interactions in vivo” (Nature Communications, 2021).

Tested on: Abp1 PPIs
Experiment: DHFR-PCA of Abp1 SH3-swapped baits (Fig. 2B-D, S2C, S2F);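 for Protein-protein interaction distance between Abp1 SH3-swapped baits, to ABP1: Euclidean distance between DHFR-PCA score profiles of the baits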;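 for Protein-protein interaction distance between Abp1 SH3-swapped baits, to BEM1-2: Euclidean distance between DHFR-PCA score profiles of the baits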;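 for Protein-protein interaction distance between Abp1 SH3-swapped baits, to BOI1: Euclidean distance between DHFR-PCA score profiles of the baits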;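 for Protein-protein interaction distance between Abp1 SH3-swapped baits, to BZZ1-1: Euclidean distance between DHFR-PCA score profiles of the baits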
Format: cell-based, Saccharomyces cerevisiae
Outline: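 Interactions were scored by DHFR protein-fragment complementation. DHFR F[1,2]-tagged Abp1 strains, whose SH3 was swapped for yeast or human ortholog domains, were crossed on YPD at 30 °C for 48 h with a 1536-format array of 575 prey-DHFR F[3] strains and 40 negatives, giving four replicates per pair. PCA selection lasted 4 days after double diploid selection.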

[1] = number of PPIs, difference, Abp1 SH3-swapped with the listed SH3, Fig2D,S2F

B1: HOF1 (protein, UniProt Q05080 1-669, looked up)
Cytokinesis protein 2: MSYSYEACFWDPNDNGVNILLGHISQGIRSCDSMILFFKQRSELEKDYARRLGAITGKLDKDIGTNMDYGKLNETFNVVLSVEKARAQSHSKQSEILFRQIYTDTKAFAANLQARYTTLSGKIERLRMDKFNKKKGCEVLQKKLQDAQIRFRDLQLNENNMIGAKRVEHNKRELLKWESNSQEYKVQLDVLKQEYKASQKFWIHEWAQLSCELQEMENARISFLQSKLQQFATSSMETYILEQTKMDMLTNHLNSFTAADEISTFSKENGTGRLKHKTSKGDMNSSANWAQMSSISTTSKKTESYMDNIRKLSSQLKETENKRKLASIDKYEKPLPSPEVTMATQFRNSTPVIRNETKVVANPTLSLRSSPVQLQSNVDDSVLRQKPDKPRPIVGEEQLKPDEDSKNPDEKGLMVHKRNQSLSSPSESSSSNPTDFSHIKKRQSMESMTTSVSSMANSIDDSQRFAKSWNSSNRKRKSMSHLQVPSSASSRSDDGGRTPNSAHNLNEDDYNTRRDTSTSTILFKPPVAVRGTSRGHTHRQSMIMQDSSNPIEDALYEMERIQSSSKPGTKTGNIMDERGVVRDRGITVTLPIVTSEGFPVIEYAKAMYPLIGNEAPGLANFHKGDYLLITEIVNKDWYKGEVYDNDRIDRNHRIGLIPYNFIQLLHQGL
**Q.** B1 was tested. Which “Protein-protein interaction distance between Abp1 SH3-swapped baits, to ABP1” value (Abp1 bait with swapped SH3, distance to bait with ABP1 SH3, sheet Fig2C) did it give?
**A.** Its value is 30.98.

**Q.** What about the “Protein-protein interaction distance between Abp1 SH3-swapped baits, to BBC1” value (distance to Abp1 bait with BBC1 SH3, sheet Fig2C) of the same molecule?
**A.** The value was 29.63.

**Q.** What about the “Protein-protein interaction distance between Abp1 SH3-swapped baits, to BEM1-1” value (distance to Abp1 bait with BEM1-1 SH3, sheet Fig2C) of the same molecule?
**A.** Its value is 23.16.

**Q.** And the “Protein-protein interaction distance between Abp1 SH3-swapped baits, to BEM1-2” value (distance to Abp1 bait with BEM1-2 SH3, sheet Fig2C)?
**A.** The value was 6.415.

**Q.** And the “Protein-protein interaction distance between Abp1 SH3-swapped baits, to BOI1” value (distance to Abp1 bait with BOI1 SH3, sheet Fig2C)?
**A.** The value was 26.74.

**Q.** What about the “Protein-protein interaction distance between Abp1 SH3-swapped baits, to BOI2” value (distance to Abp1 bait with BOI2 SH3, sheet Fig2C) of the same molecule?
**A.** The value was 25.74.

**Q.** And the “Protein-protein interaction distance between Abp1 SH3-swapped baits, to BUD14” value (distance to Abp1 bait with BUD14 SH3, sheet Fig2C)?
**A.** The value was 21.88.

**Q.** And the “Protein-protein interaction distance between Abp1 SH3-swapped baits, to BZZ1-1” value (distance to Abp1 bait with BZZ1-1 SH3, sheet Fig2C)?
**A.** Its value is 30.35.

**Q.** And the “Protein-protein interaction distance between Abp1 SH3-swapped baits, to BZZ1-2” value (distance to Abp1 bait with BZZ1-2 SH3, sheet Fig2C)?
**A.** The value was 27.6.

**Q.** And the “Protein-protein interaction distance between Abp1 SH3-swapped baits, to CDC25” value (distance to Abp1 bait with CDC25 SH3, sheet Fig2C)?
**A.** The value was 10.42.

**Q.** And the “Protein-protein interaction distance between Abp1 SH3-swapped baits, to CTTN” value (distance to Abp1 bait with CTTN SH3, sheet Fig2C)?
**A.** The value was 25.67.

**Q.** What about the “Protein-protein interaction distance between Abp1 SH3-swapped baits, to CYK3” value (distance to Abp1 bait with CYK3 SH3, sheet Fig2C) of the same molecule?
**A.** The value was 10.8.

**Q.** What about the “Protein-protein interaction distance between Abp1 SH3-swapped baits, to DBNL” value (distance to Abp1 bait with DBNL SH3, sheet Fig2C) of the same molecule?
**A.** Its value is 29.45.

**Q.** What about the “Protein-protein interaction distance between Abp1 SH3-swapped baits, to FUS1” value (distance to Abp1 bait with FUS1 SH3, sheet Fig2C) of the same molecule?
**A.** The value was 21.29.

**Q.** What about the “Protein-protein interaction distance between Abp1 SH3-swapped baits, to HCLS1” value (distance to Abp1 bait with HCLS1 SH3, sheet Fig2C) of the same molecule?
**A.** Its value is 32.71.

**Q.** And the “Protein-protein interaction distance between Abp1 SH3-swapped baits, to HOF1” value (distance to Abp1 bait with HOF1 SH3, sheet Fig2C)?
**A.** The value was 0.00.

**Q.** And the “Protein-protein interaction distance between Abp1 SH3-swapped baits, to HSE1” value (distance to Abp1 bait with HSE1 SH3, sheet Fig2C)?
**A.** The value was 29.42.

**Q.** And the “Protein-protein interaction distance between Abp1 SH3-swapped baits, to LSB1” value (distance to Abp1 bait with LSB1 SH3, sheet Fig2C)?
**A.** Its value is 35.15.

**Q.** And the “Protein-protein interaction distance between Abp1 SH3-swapped baits, to LSB3” value (distance to Abp1 bait with LSB3 SH3, sheet Fig2C)?
**A.** The value was 34.67.

**Q.** And the “Protein-protein interaction distance between Abp1 SH3-swapped baits, to MYO3” value (distance to Abp1 bait with MYO3 SH3, sheet Fig2C)?
**A.** Its value is 33.94.

**Q.** What about the “Protein-protein interaction distance between Abp1 SH3-swapped baits, to MYO5” value (distance to Abp1 bait with MYO5 SH3, sheet Fig2C) of the same molecule?
**A.** Its value is 33.29.

**Q.** What about the “Protein-protein interaction distance between Abp1 SH3-swapped baits, to NBP2” value (distance to Abp1 bait with NBP2 SH3, sheet Fig2C) of the same molecule?
**A.** The value was 21.63.

**Q.** What about the “Protein-protein interaction distance between Abp1 SH3-swapped baits, to PEX13” value (distance to Abp1 bait with PEX13 SH3, sheet Fig2C) of the same molecule?
**A.** Its value is 33.79.

**Q.** What about the “Protein-protein interaction distance between Abp1 SH3-swapped baits, to PIN3” value (distance to Abp1 bait with PIN3 SH3, sheet Fig2C) of the same molecule?
**A.** The value was 32.38.

**Q.** And the “Protein-protein interaction distance between Abp1 SH3-swapped baits, to RVS167” value (distance to Abp1 bait with RVS167 SH3, sheet Fig2C)?
**A.** The value was 32.19.

**Q.** What about the “Protein-protein interaction distance between Abp1 SH3-swapped baits, to SDC25” value (distance to Abp1 bait with SDC25 SH3, sheet Fig2C) of the same molecule?
**A.** Its value is 7.905.

**Q.** And the “Protein-protein interaction distance between Abp1 SH3-swapped baits, to SHO1” value (distance to Abp1 bait with SHO1 SH3, sheet Fig2C)?
**A.** The value was 29.05.

**Q.** What about the “Protein-protein interaction distance between Abp1 SH3-swapped baits, to SLA1-1” value (distance to Abp1 bait with SLA1-1 SH3, sheet Fig2C) of the same molecule?
**A.** The value was 9.015.

**Q.** And the “Protein-protein interaction distance between Abp1 SH3-swapped baits, to SLA1-2” value (distance to Abp1 bait with SLA1-2 SH3, sheet Fig2C)?
**A.** The value was 20.72.

**Q.** What about the “Protein-protein interaction distance between Abp1 SH3-swapped baits, to SLA1-3” value (distance to Abp1 bait with SLA1-3 SH3, sheet Fig2C) of the same molecule?
**A.** The value was 35.48.

**Q.** What about the “Protein-protein interaction distance between Abp1 SH3-swapped baits, to YSC84” value (distance to Abp1 bait with YSC84 SH3, sheet Fig2C) of the same molecule?
**A.** Its value is 34.92.

**Q.** And the “PPIs gained by Abp1 - SH3-dependent PPIs gained by Abp1” value [1]?
**A.** Its value is 1.

**Q.** What about the “SH3-dependent PPIs - SH3-dependent PPIs gained by Abp1” value [1] of the same molecule?
**A.** The value was 4.

**Q.** What about the “SH3-dependent PPIs gained by Abp1” value (number of PPIs, Abp1 SH3-swapped with the listed SH3, DHFR-PCA, Fig2D,S2F) of the same molecule?
**A.** Its value is 0.
